Kd data for six molecules are collected here from article PMC6656775, “Soluble and membrane-bound protein carrier mediate direct copper transport to the ethylene receptor family” (Scientific Reports, 2019).

Sequences and labels used below:
B1: CCH, full-length, purified recombinant (natural protein, A. thaliana, UniProt O82089 1-121, looked up)
chain: MAQTVVLKVGMSCQGCVGAVNRVLGKMEGVESFDIDIKEQKVTVKGNVEPEAVFQTVSKTGKKTSYWPVEAEAEPKAEADPKVETVTETKTEAETKTEAKVDAKADVEPKAAEAETKPSQV
modifications: AlexaFluor488-NHS label where it was the labelled partner (with ETR1^1–157 and ETR1^306–738); unlabelled where titrated
notes: soluble copper chaperone CCH, Arabidopsis thaliana, full-length; Preloaded with Cu(I) in the copper transfer assay; also called CCH wildtype; full-length CCH; source: E. coli BL21 (DE3) or C43 (DE3), pETEV16b, purified (HisTrap, TEV, Superdex200)
B2: CCHΔ, deletion mutant of CCH lacking the C-terminal extension, purified recombinant (domain or fragment)
chain: MAQTVVLKVGMSCQGCVGAVNRVLGKMEGVESFDIDIKEQKVTVKGNVEPEAVFQTVSKTGKKTSYWPVEAEAEPK
modifications: AlexaFluor488-NHS label where it was the labelled partner (with ETR1^1–157 and ETR1^306–738); unlabelled where titrated
B3: ETR1^1–157, purified recombinant (domain or fragment, A. thaliana, UniProt P49333 1-157, looked up)
chain: MEVCNCIEPQWPADELLMKYQYISDFFIAIAYFSIPLELIYFVKKSAVFPYRWVLVQFGAFIVLCGATHLINLWTFTTHSRTVALVMTTAKVLTAVVSCATALMLVHIIPDLLSVKTRELFLKNKAAELDREMGLIRTQEETGRHVRMLTHEIRSTL
notes: In detergent (FosCholine-16); also called purified ETR1
B4: NterRAN1 (amino acids 1–298), purified recombinant (domain or fragment, A. thaliana, UniProt Q9S7J8 1-298, looked up)
chain: MAPSRRDLQLTPVTGGSSSQISDMEEVGLLDSYHNEANADDILTKIEEGRDVSGLRKIQVGVTGMTCAACSNSVEAALMNVNGVFKASVALLQNRADVVFDPNLVKEEDIKEAIEDAGFEAEILAEEQTQATLVGQFTIGGMTCAACVNSVEGILRDLPGVKRAVVALSTSLGEVEYDPNVINKDDIVNAIEDAGFEGSLVQSNQQDKLVLRVDGILNELDAQVLEGILTRLNGVRQFRLDRISGELEVVFDPEVVSSRSLVDGIEEDGFGKFKLRVMSPYERLSSKDTGEASNMFRR
modifications: AlexaFluor488-NHS label
notes: RAN1 (HMA7), Arabidopsis thaliana, cytosolic N-terminal region, amino acids 1-298; source: E. coli BL21 (DE3) or C43 (DE3), pETEV16b, purified (HisTrap, TEV, Superdex200)
B5: ATX1, purified recombinant (natural protein, A. thaliana, UniProt Q94BT9 1-76, looked up)
chain: MSQTVVLRVAMTCEGCVGAVKRVLGKMEGVESFDVDIKEQKVTVKGNVQPDAVLQTVTKTGKKTAFWEAEGETAKA
modifications: AlexaFluor488-NHS label where it was the labelled partner (with ETR1^1–157 and ETR1^306–738); unlabelled where titrated
notes: soluble copper chaperone ATX1, Arabidopsis thaliana; Preloaded with Cu(I) in the copper transfer assay; also called Cu(I)-ATX1; source: E. coli BL21 (DE3) or C43 (DE3), pETEV16b, purified (HisTrap, TEV, Superdex200)
B6: ETR1^306–738, purified recombinant (domain or fragment, A. thaliana, UniProt P49333 306-738, looked up)
chain: ALSHAAILEESMRARDLLMEQNVALDLARREAETAIRARNDFLAVMNHEMRTPMHAIIALSSLLQETELTPEQRLMVETILKSSNLLATLMNDVLDLSRLEDGSLQLELGTFNLHTLFREVLNLIKPIAVVKKLPITLNLAPDLPEFVVGDEKRLMQIILNIVGNAVKFSKQGSISVTALVTKSDTRAADFFVVPTGSHFYLRVKVKDSGAGINPQDIPKIFTKFAQTQSLATRSSGGSGLGLAISKRFVNLMEGNIWIESDGLGKGCTAIFDVKLGISERSNESKQSGIPKVPAIPRHSNFTGLKVLVMDENGVSRMVTKGLLVHLGCEVTTVSSNEECLRVVSHEHKVVFMDVCMPGVENYQIALRIHEKFTKQRHQRPLLVALSGNTDKSTKEKCMSFGLDGVLLKPVSLDNIRDVLSDLLEPRVLYEGM
notes: also called extra-membranous part of ETR1; soluble extra-membranous part of the receptor

Test [1] has as its target B3. Put plainly: MST; AlexaFluor488-labelled ATX1 (75 nM), CCH (100 nM) or CCHΔ (50 nM) in 50 mM HEPES, 300 mM NaCl, pH 7.5, 0.015% FosCholine-16, 0.05% Tween20; ETR1^1–157 titrated 7.5 µM to 0.2 nM; triplicates; apparent dissociation constants. As to conditions: both partners purified.
Test [2] concerns the target T1, RAN1, full-length, purified recombinant (A. thaliana, UniProt Q9S7J8 1-1001, AlexaFluor488-NHS label).
T1 construct: P1B-type copper ATPase RAN1 (HMA7), Arabidopsis thaliana, full-length; also called full-length RAN1; HMA7; source: E. coli BL21 (DE3) or C43 (DE3), pETEV16b, solubilised with DDM, purified (HisTrap, TEV, Superdex200)
T1 sequence (looked up): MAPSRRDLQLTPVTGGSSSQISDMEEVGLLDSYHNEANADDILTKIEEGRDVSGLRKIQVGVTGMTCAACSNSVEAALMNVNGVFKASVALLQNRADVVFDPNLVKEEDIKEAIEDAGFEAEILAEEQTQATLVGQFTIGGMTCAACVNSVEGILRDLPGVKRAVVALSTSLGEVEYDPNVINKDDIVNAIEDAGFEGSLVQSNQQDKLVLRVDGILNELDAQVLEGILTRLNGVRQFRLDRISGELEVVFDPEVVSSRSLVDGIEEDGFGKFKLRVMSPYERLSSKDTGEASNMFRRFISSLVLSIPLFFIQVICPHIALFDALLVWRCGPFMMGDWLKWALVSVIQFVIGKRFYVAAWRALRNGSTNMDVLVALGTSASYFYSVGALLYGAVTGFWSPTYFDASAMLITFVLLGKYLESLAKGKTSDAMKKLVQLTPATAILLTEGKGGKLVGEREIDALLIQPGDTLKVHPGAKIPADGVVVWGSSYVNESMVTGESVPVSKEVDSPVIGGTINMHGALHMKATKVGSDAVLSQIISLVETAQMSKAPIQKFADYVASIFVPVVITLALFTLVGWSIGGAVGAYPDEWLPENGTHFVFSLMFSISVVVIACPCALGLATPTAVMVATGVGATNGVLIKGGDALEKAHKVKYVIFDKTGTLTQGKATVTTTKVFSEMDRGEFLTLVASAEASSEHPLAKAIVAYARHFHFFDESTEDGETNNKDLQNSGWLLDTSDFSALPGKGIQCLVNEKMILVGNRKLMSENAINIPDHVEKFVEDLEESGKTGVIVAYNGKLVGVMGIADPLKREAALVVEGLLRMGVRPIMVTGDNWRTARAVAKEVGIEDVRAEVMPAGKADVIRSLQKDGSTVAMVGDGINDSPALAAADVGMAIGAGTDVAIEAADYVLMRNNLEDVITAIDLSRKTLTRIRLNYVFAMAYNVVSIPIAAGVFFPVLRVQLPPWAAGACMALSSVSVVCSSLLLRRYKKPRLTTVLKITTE
Briefly: MST; AlexaFluor488-labelled RAN1 or CterRAN1 (15 nM, 50 mM HEPES, 300 mM NaCl, 0.1% DDM, pH 7.5) or NterRAN1 (50 nM, same buffer without DDM, 0.05% Tween20); ATX1, CCH or CCHΔ titrated 30 µM to 0.9 nM; triplicates; apparent dissociation constants. Particulars: both partners purified.

Test [3] addresses T1, RAN1, full-length, purified recombinant. Briefly: MST; AlexaFluor488-labelled RAN1 or CterRAN1 (20 nM, 50 mM HEPES, 300 mM NaCl, 0.1% DDM, pH 7.5) or NterRAN1 (40 nM, 0.05% Tween20); ETR1^1–157 titrated 10 µM to 0.3 nM in buffer with 0.015% FosCholine-16; triplicates. As to conditions: both partners purified.
The target in test [4] is B4. Described as above. Particulars: both partners purified.
The target in test [5] is CterRAN1 (amino acids 299–1001), purified recombinant (A. thaliana) (UniProt Q9S7J8). Described as above.
For test [6], the target named is B6. Briefly: MST; AlexaFluor488-labelled RAN1, CterRAN1, NterRAN1, ATX1, CCH or CCHΔ (50 nM) in buffer D (50 mM Tris, 250 mM NaCl, 0.015% FosCholine16, 2.5 mM DTT, 20% glycerol, pH 8.5); ETR1^306–738 titrated 37 µM to 1.1 nM; triplicates. Particulars: both partners purified.
The target of test [7] is T2, CterRAN1 (amino acids 299–1001), purified recombinant (A. thaliana, UniProt Q9S7J8 299-1001, AlexaFluor488-NHS label).
T2 construct: RAN1 (HMA7), Arabidopsis thaliana, amino acids 299-1001 (transmembrane copper transport site); also called CterRAN1 mutant; source: E. coli BL21 (DE3) or C43 (DE3), pETEV16b, solubilised with DDM, purified (HisTrap, TEV, Superdex200)
T2 sequence (looked up): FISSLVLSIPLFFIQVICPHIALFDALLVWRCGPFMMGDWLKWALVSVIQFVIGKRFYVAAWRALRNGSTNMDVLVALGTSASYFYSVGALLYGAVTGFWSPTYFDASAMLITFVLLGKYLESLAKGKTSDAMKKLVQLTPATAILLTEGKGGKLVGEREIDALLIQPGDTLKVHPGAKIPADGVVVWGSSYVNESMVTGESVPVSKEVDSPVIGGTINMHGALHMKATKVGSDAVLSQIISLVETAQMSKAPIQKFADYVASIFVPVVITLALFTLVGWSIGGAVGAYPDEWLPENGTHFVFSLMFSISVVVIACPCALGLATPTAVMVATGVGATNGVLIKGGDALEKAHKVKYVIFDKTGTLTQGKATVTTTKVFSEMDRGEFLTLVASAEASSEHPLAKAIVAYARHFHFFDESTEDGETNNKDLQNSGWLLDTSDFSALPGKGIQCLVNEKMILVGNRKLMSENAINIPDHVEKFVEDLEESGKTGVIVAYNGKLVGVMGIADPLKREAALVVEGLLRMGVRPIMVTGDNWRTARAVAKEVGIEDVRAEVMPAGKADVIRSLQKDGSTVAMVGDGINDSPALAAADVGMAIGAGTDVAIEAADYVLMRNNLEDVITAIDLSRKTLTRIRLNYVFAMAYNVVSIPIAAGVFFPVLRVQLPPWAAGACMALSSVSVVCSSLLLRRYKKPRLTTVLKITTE
Described as above. Particulars: both partners purified.

Test [8] has as its target T1, RAN1, full-length, purified recombinant. The test is described as above. Particulars: both partners purified.

On to B1, for which the Kd in test [1] was 526 ± 101 nM; in test [2], 55 ± 13 nM.

For the molecule B2, the Kd in test [1] was determined as 376 ± 93 nM; in test [2], 77 ± 24 nM.

For B3, the results for the Kd in test [3], in test [4] and in test [5] were 33 ± 8 nM, 205 ± 35 nM and 2610 nM, respectively.

B4: in test [6], the Kd was 3480 ± 315 nM.

Take B5: the Kd came out at 313 ± 74 nM in test [1] and 41 ± 11 nM in test [2].

Regarding B6, the values for the Kd in test [7] and in test [8] were 211 ± 38 nM and 71 ± 17 nM, respectively.
